Results reported in the supplement of paper PMC9112550, “Optimization of the antimicrobial peptide Bac7 by deep mutational scanning” (BMC Biology, 2022).

The sequences below were run on Escherichia coli TOP10 (assay: shrunken log2 fold change of peptide-encoding DNA abundance (4.5 h post-induction vs induction); higher = less antimicrobial activity (less host growth inhibition)). Details: time post-induction: 4.5 h; library: site-saturation at positions 5, 18, 19, 20.
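Also: peptides expressed intracellularly from a pBAD plasmid library in pooled LB shake-flask culture, induced with 0.3% L-arabinose, DNA abundance read by NGS, three biological replicates, DESeq2 with apeglm shrinkage.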

| Sequence | shrunken log2 fold change |
| --- | --- |
| RRIRGRPPRLPRPRPRPDRRPRP | -0.12 |
| RRIRVRPPRLPRPRPRPHYKPRP | -0.389 |
| RRIRVRPPRLPRPRPRPTQDPRP | 0.386 |
| RRIRKRPPRLPRPRPRPFKFPRP | -0.0557 |
| RRIRKRPPRLPRPRPRPFFAPRP | 0.645 |
| RRIRYRPPRLPRPRPRPMLTPRP | -0.0378 |
| RRIRSRPPRLPRPRPRPDPDPRP | -0.0414 |
| RRIRDRPPRLPRPRPRPFFDPRP | 0.266 |
| RRIRARPPRLPRPRPRPAKMPRP | 0.463 |
| RRIRFRPPRLPRPRPRPRCFPRP | -0.183 |
| RRIRYRPPRLPRPRPRPMCYPRP | -0.399 |
| RRIRNRPPRLPRPRPRPQFLPRP | 0.106 |
| RRIRRRPPRLPRPRPRPGLFPRP | 0.389 |
| RRIRSRPPRLPRPRPRPFKDPRP | -0.11 |
| RRIRPRPPRLPRPRPRPKSTPRP | -0.244 |
| RRIRNRPPRLPRPRPRPRIQPRP | 0.0619 |
| RRIRIRPPRLPRPRPRPTMMPRP | -0.0891 |
| RRIRHRPPRLPRPRPRPRMWPRP | -0.237 |
| RRIRGRPPRLPRPRPRPNLIPRP | -0.0614 |
| RRIRERPPRLPRPRPRPFFAPRP | 0.848 |
| RRIRKRPPRLPRPRPRPCLGPRP | 0.0457 |
| RRIRARPPRLPRPRPRPQKCPRP | 0.0806 |
| RRIRWRPPRLPRPRPRPCMGPRP | -0.0956 |
| RRIRRRPPRLPRPRPRPGRDPRP | 0.717 |
| RRIRVRPPRLPRPRPRPEGGPRP | 0.747 |

| Sequence | shrunken log2 fold change |
| --- | --- |
| RRIRVRPPRLPRPRPRPWLNPRP | -0.106 |
| RRIRARPPRLPRPRPRPAWYPRP | 0.0311 |
| RRIRNRPPRLPRPRPRPPHRPRP | 0.00305 |
| RRIRDRPPRLPRPRPRPTTHPRP | 0.313 |
| RRIRKRPPRLPRPRPRPHIHPRP | -0.239 |
| RRIRDRPPRLPRPRPRPGDQPRP | 0.282 |
| RRIRYRPPRLPRPRPRPNCEPRP | -0.144 |
| RRIRIRPPRLPRPRPRPLFLPRP | -0.653 |
| RRIRHRPPRLPRPRPRPRSWPRP | 0.129 |
| RRIRARPPRLPRPRPRPSLFPRP | 0.349 |
| RRIRNRPPRLPRPRPRPNGVPRP | -0.0397 |
| RRIRHRPPRLPRPRPRPYLWPRP | 0.0116 |
| RRIRERPPRLPRPRPRPWFCPRP | -0.375 |
| RRIRWRPPRLPRPRPRPILGPRP | -0.0119 |
| RRIRPRPPRLPRPRPRPDKTPRP | 0.015 |
| RRIRNRPPRLPRPRPRPKILPRP | 0.0428 |
| RRIRWRPPRLPRPRPRPCALPRP | -0.321 |
| RRIRWRPPRLPRPRPRPNCLPRP | 0.257 |
| RRIRMRPPRLPRPRPRPPISPRP | 0.163 |
| RRIRDRPPRLPRPRPRPMQWPRP | 0.0918 |
| RRIRWRPPRLPRPRPRPTLQPRP | 0.253 |
| RRIRHRPPRLPRPRPRPNMLPRP | -0.387 |
| RRIRMRPPRLPRPRPRPTQNPRP | 1.18 |
| RRIRTRPPRLPRPRPRPFVSPRP | 0.00713 |
| RRIRNRPPRLPRPRPRPMRYPRP | -0.154 |

| Sequence | shrunken log2 fold change |
| --- | --- |
| RRIRTRPPRLPRPRPRPYDQPRP | -0.241 |
| RRIRHRPPRLPRPRPRPMIDPRP | -0.161 |
| RRIRDRPPRLPRPRPRPSDKPRP | 0.0657 |
| RRIRSRPPRLPRPRPRPAGQPRP | -0.0166 |
| RRIRRRPPRLPRPRPRPMESPRP | -0.00992 |
| RRIRPRPPRLPRPRPRPLRGPRP | 0.792 |
| RRIRWRPPRLPRPRPRPEAFPRP | 0.488 |
| RRIRCRPPRLPRPRPRPEDAPRP | -0.0302 |
| RRIRIRPPRLPRPRPRPGLIPRP | -0.627 |
| RRIRERPPRLPRPRPRPGGKPRP | -0.0276 |
| RRIRQRPPRLPRPRPRPNWNPRP | -0.206 |
| RRIRIRPPRLPRPRPRPIAWPRP | 0.0253 |
| RRIRWRPPRLPRPRPRPHIGPRP | -0.079 |
| RRIRRRPPRLPRPRPRPSYRPRP | -0.142 |
| RRIRGRPPRLPRPRPRPPTQPRP | 0.727 |
| RRIRYRPPRLPRPRPRPPIQPRP | -0.589 |
| RRIRTRPPRLPRPRPRPISEPRP | 0.00252 |
| RRIRGRPPRLPRPRPRPQFFPRP | -0.0486 |
| RRIRSRPPRLPRPRPRPVGDPRP | 0.0704 |
| RRIRLRPPRLPRPRPRPYVPPRP | -0.383 |
| RRIRPRPPRLPRPRPRPWIEPRP | -0.162 |
| RRIRARPPRLPRPRPRPVKMPRP | 0.163 |
| RRIRSRPPRLPRPRPRPWWPPRP | 0.0626 |
| RRIRERPPRLPRPRPRPIDCPRP | -0.409 |
| RRIRCRPPRLPRPRPRPQSPPRP | -0.0224 |

| Sequence | shrunken log2 fold change |
| --- | --- |
| RRIRDRPPRLPRPRPRPPAAPRP | 1.13 |
| RRIRYRPPRLPRPRPRPSNQPRP | -0.273 |
| RRIRIRPPRLPRPRPRPKEEPRP | 0.0133 |
| RRIRRRPPRLPRPRPRPNFMPRP | 0.142 |
| RRIRDRPPRLPRPRPRPKDSPRP | -0.0525 |
| RRIRQRPPRLPRPRPRPWAYPRP | -0.11 |
| RRIRVRPPRLPRPRPRPNAQPRP | 0.24 |
| RRIRWRPPRLPRPRPRPKGGPRP | 0.536 |
| RRIRYRPPRLPRPRPRPLLYPRP | -0.94 |
| RRIRVRPPRLPRPRPRPLPPPRP | 0.418 |
| RRIRPRPPRLPRPRPRPVGDPRP | 0.365 |
| RRIRMRPPRLPRPRPRPRMKPRP | 0.447 |
| RRIRARPPRLPRPRPRPNEPPRP | -0.115 |
| RRIRPRPPRLPRPRPRPLWSPRP | -0.0489 |
| RRIRPRPPRLPRPRPRPYGEPRP | 0.0864 |
| RRIRGRPPRLPRPRPRPTEVPRP | 0.311 |
| RRIRKRPPRLPRPRPRPGLYPRP | 0.324 |
| RRIRIRPPRLPRPRPRPWRFPRP | -0.105 |
| RRIRPRPPRLPRPRPRPAQGPRP | 0.156 |
| RRIRVRPPRLPRPRPRPYCFPRP | -0.736 |
| RRIRMRPPRLPRPRPRPIMTPRP | -0.104 |
| RRIRCRPPRLPRPRPRPVNNPRP | -0.327 |
| RRIRPRPPRLPRPRPRPTVEPRP | -0.104 |
| RRIRRRPPRLPRPRPRPVMIPRP | 0.224 |
| RRIRHRPPRLPRPRPRPIDPPRP | 0.0865 |

| Sequence | shrunken log2 fold change |
| --- | --- |
| RRIRLRPPRLPRPRPRPNGHPRP | -0.0365 |
| RRIRARPPRLPRPRPRPKYAPRP | 0.354 |
| RRIRQRPPRLPRPRPRPWRYPRP | 0.0785 |
| RRIRIRPPRLPRPRPRPRGYPRP | -0.794 |
| RRIRFRPPRLPRPRPRPWSIPRP | -0.0103 |
| RRIRERPPRLPRPRPRPCNMPRP | -0.101 |
| RRIRRRPPRLPRPRPRPKIWPRP | 0.227 |
| RRIRKRPPRLPRPRPRPDVLPRP | 0.0156 |
| RRIRYRPPRLPRPRPRPFGLPRP | -0.282 |
| RRIRVRPPRLPRPRPRPLHMPRP | -0.17 |
| RRIRVRPPRLPRPRPRPEQKPRP | -0.0196 |
| RRIRLRPPRLPRPRPRPDCNPRP | 0.0608 |
| RRIRFRPPRLPRPRPRPYTYPRP | -0.141 |
| RRIRKRPPRLPRPRPRPHWEPRP | -0.102 |
| RRIRFRPPRLPRPRPRPNESPRP | 0.0698 |
| RRIRCRPPRLPRPRPRPEVIPRP | -0.083 |
| RRIRSRPPRLPRPRPRPETYPRP | -0.293 |
| RRIRNRPPRLPRPRPRPKPGPRP | 0.235 |
| RRIRPRPPRLPRPRPRPRFPPRP | 0.233 |
| RRIRNRPPRLPRPRPRPYNGPRP | 0.0167 |
| RRIRHRPPRLPRPRPRPNGDPRP | -0.0512 |
| RRIRLRPPRLPRPRPRPDFVPRP | -0.108 |
| RRIRGRPPRLPRPRPRPSYGPRP | -0.137 |
| RRIRERPPRLPRPRPRPYYTPRP | -0.116 |
| RRIRCRPPRLPRPRPRPWQQPRP | -0.000303 |

| Sequence | shrunken log2 fold change |
| --- | --- |
| RRIRYRPPRLPRPRPRPQGFPRP | -0.0121 |
| RRIRSRPPRLPRPRPRPVTQPRP | 0.168 |
| RRIRFRPPRLPRPRPRPFPQPRP | -0.173 |
| RRIRPRPPRLPRPRPRPLRFPRP | 0.431 |
| RRIRCRPPRLPRPRPRPRQRPRP | 0.645 |
| RRIRIRPPRLPRPRPRPAVLPRP | 0.0102 |
| RRIRPRPPRLPRPRPRPISTPRP | -0.324 |
| RRIRNRPPRLPRPRPRPDRSPRP | -0.043 |
| RRIRERPPRLPRPRPRPSPFPRP | -0.972 |
| RRIRHRPPRLPRPRPRPVIHPRP | -0.283 |
| RRIRARPPRLPRPRPRPHHVPRP | -0.0499 |
| RRIRPRPPRLPRPRPRPIWCPRP | 0.0267 |
| RRIRPRPPRLPRPRPRPFTQPRP | -0.0301 |
| RRIRERPPRLPRPRPRPEKAPRP | -0.0229 |
| RRIRRRPPRLPRPRPRPCNGPRP | -0.199 |
| RRIRRRPPRLPRPRPRPLEAPRP | 0.404 |
| RRIRHRPPRLPRPRPRPIVLPRP | 0.00695 |
| RRIRWRPPRLPRPRPRPVEGPRP | -0.0555 |
| RRIRQRPPRLPRPRPRPKFDPRP | -0.0817 |
| RRIRVRPPRLPRPRPRPTLMPRP | 0.169 |
| RRIRERPPRLPRPRPRPYFEPRP | -0.696 |
| RRIRQRPPRLPRPRPRPRWVPRP | 0.345 |
| RRIRMRPPRLPRPRPRPHYSPRP | -0.624 |
| RRIRRRPPRLPRPRPRPPCEPRP | 0.195 |
| RRIRARPPRLPRPRPRPEEQPRP | 1.97 |
